± gives the standard deviation of the averaged measurements.
The sequences below were run on ATP (assay: switch fluorescence ratio, 500 uM ATP over buffer (Cy3 cluster intensity, sum of 5 cycles each) (fold (ratio)); higher = stronger signal-on switching upon ATP binding; sequences stand for … in TCGTCGGCAGCGTCAGATGTGTATAAGAGACAGTTTTTTTTTTTTTTTTTTTTTTTTT…TC). Conditions: aptamer strand: ATP DNA aptamer (quencher-CACCTGGGGGAGTATTGCGGAGGAAGG + anchor), 100 nM annealed; ATP concentration: 500 uM.
How it was run: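 For every switch-domain sequence, the fluorescence ratio is the mean of per-cluster values, each being summed target-cycle Cy3 intensity over summed buffer-cycle Cy3 intensity. Clusters outside 100-1000 RFU were excluded. On a modified Illumina MiSeq flow-cell, the Cy3-labelled switching-strand clusters were annealed to 100 nM quencher-labelled ATP aptamer, imaged in selection buffer and then after 15 min with 500 uM ATP at 22 °C. Five such cycles were run, with NaOH stripping and re-annealing between them.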
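Also: ATP exposure 15 min at 22 °C before imaging.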

Sequence	switch fluorescence ratio
AAATGGTGTG	1.02 ± 0.019
TCAATGGTTA	0.978 ± 0.014
AGTAATGTAG	1 ± 0.037
TTAGTTTAGG	0.9824 ± 0.0096
GGATAGGATG	0.974 ± 0.022
GAATGGGATA	1.04 ± 0.084
GCCAGGATTG	1.02 ± 0.013
ATGCACCAGG	2.55 ± 0.19
GGGGATATGC	0.995 ± 0.048
AAAATTTAAA	1 ± 0.051
AGATGTTAGC	0.983 ± 0.047
AGTATATTTT	1.006 ± 0.0046
GTACAGGTTT	1.018 ± 0.0074
GCGATTAAAG	1 ± 0.014
ACTGTACGCA	1.51 ± 0.086
TGCGTTGGTG	1.006 ± 0.0061
TGCCTTGCTT	1.01 ± 0.023
CGTGAGTTGG	0.992 ± 0.014
TGGGAACCAA	1.02 ± 0.022
TTTTTCAGGT	0.997 ± 0.015
GAAGGAATGT	1 ± 0.022
TTTCTGGTCT	1.03 ± 0.012
TTTTGGCCCC	1.07 ± 0.084

Sequence	switch fluorescence ratio
CGGGGAGGGC	1.04 ± 0.071
TTTATAGGTG	1.14 ± 0.089
TTGCGCCCCC	1.104 ± 0.011
TCATGGAGGT	0.96 ± 0.03
AGAGGAGGTG	1.02 ± 0.03
AGGGAATCGG	0.976 ± 0.03
GGGAATGGGC	0.991 ± 0.066
CGGCCTCTGC	1.15 ± 0.091
GGGGCGACTA	1.03 ± 0.052
GATTGGAACG	0.976 ± 0.013
GGATTAGTGA	0.964 ± 0.036
GCCTTAATCT	1.01 ± 0.038
TGGTTCGGGG	0.96 ± 0.015
GGGCAAGGTT	0.9682 ± 0.0065
TAGTTGCGGC	1.01 ± 0.041
AGTTCCATTT	0.97 ± 0.028
TGAGGGGTTT	0.992 ± 0.015
GGGGAAGAGG	0.983 ± 0.011
TAGGGAAATT	1.04 ± 0.021
GCGAAAAAAG	0.99907 ± 0.00052
GGTTTAAGCA	0.982 ± 0.034
GATTAATTAC	1.06 ± 0.018
TGGGGTTGTG	0.987 ± 0.031

Sequence	switch fluorescence ratio
GGAGGTTGGC	1.02 ± 0.07
AAAGAACGCT	1.04 ± 0.015
CGGTTGTGCG	0.969 ± 0.025
CCGAATTATA	2.04 ± 1.3
TTCATCGCTG	1.04 ± 0.053
AGAAAGGGGC	1.31 ± 0.31
GGCCAAGGGA	1.016 ± 0.0069
ATGCTAAAAG	1.008 ± 0.0096
CAGATAGGCT	1.04 ± 0.019
AGGCGGGGGC	1.03 ± 0.068
AAGATTTTAC	1.01 ± 0.019
ACTTAGGCG	1.05 ± 0.086
GCCGTGAGAG	0.9842 ± 0.0013
AAGGGACGGG	1.01 ± 0.027
GATGTTCGAG	0.991 ± 0.011
AGGTAATGGT	0.998 ± 0.039
GGTTTCTAGA	0.984 ± 0.024
GGAGGGGCAC	0.979 ± 0.036
GGCAATTAGG	1.04 ± 0.048
TTAAACGTAG	1 ± 0.045
TTTGAGAAAG	0.992 ± 0.019
AGAGGTTGTT	0.995 ± 0.038
AAAAGAGCGC	1.08 ± 0.072

Sequence	switch fluorescence ratio
ATGATAGATA	1.004 ± 0.0047
GGAGGCCCCA	0.996 ± 0.033
TTTTATTTAT	1.02 ± 0.053
TCCTGAGGAT	1 ± 0.058
GTTGTTTCAG	0.969 ± 0.022
TTGTTGAGAA	0.995 ± 0.056
TCAATCTAAC	1.35 ± 0.55
GCTAATTATA	1.01 ± 0.015
TCACTCATTG	0.9975 ± 0.0014
TTCGCATATT	1.47 ± 0.26
GGGGACATGG	1.07 ± 0.11
GTTTCCAATC	1.02 ± 0.06
CAATGCACGG	1.07 ± 0.0098
AAGTGTGCGA	0.997 ± 0.028
GAGGGCTTGG	1.05 ± 0.016
GTGTTAAGGA	0.995 ± 0.02
TTGGGTTCAC	0.988 ± 0.01
GATTTATTGG	0.983 ± 0.032
ATTTTTTACA	1.082 ± 0.0069
GGGTAGGCTT	0.965 ± 0.023
TCGGTTGGGA	0.986 ± 0.038
TGATGCAGTT	1.01 ± 0.018
TGCAGGAGGG	0.972 ± 0.022

Sequence	switch fluorescence ratio
ATTTGAGGTG	1.03 ± 0.038
CGGCCATTCG	0.982 ± 0.021
TCTGGGGGGA	1.01 ± 0.019
GGGTTGAGTG	0.982 ± 0.028
TTTTCTGTG	0.977 ± 0.031
TCCTGAAAAC	1.1 ± 0.087
ATTTAATATG	0.97 ± 0.011
TTCTAGCGAA	1.17 ± 0.22
GAAAAAAAGG	0.982 ± 0.051
TGGAAAAGGG	1.032 ± 0.0082
AAAGAGCGGG	1.02 ± 0.061
GGGGGCAATC	2.84 ± 0.54
ACTTTTACTC	1.16 ± 0.014
TTCAAATCGA	1 ± 0.039
TGGTGGCCGG	1.02 ± 0.019
ATTAATGGGT	1.02 ± 0.027
GGTTTGAGGG	0.985 ± 0.028
TTTCTTATGT	1.03 ± 0.024
GAAATTTGGT	0.99 ± 0.042
TAGGGATAGT	0.9986 ± 0.0052
ATTCTGGTGG	1.01 ± 0.046
CGGCAGGCAC	1.21 ± 0.037
TCGACTGCGT	1.056 ± 0.005

Sequence	switch fluorescence ratio
GACTATTATG	1 ± 0.019
GCATGTCGTT	1.001 ± 0.0047
GCCTTCATGG	0.98 ± 0.044
GTGTATAGAG	0.99 ± 0.051
CATGCCAGAA	0.981 ± 0.015
CTGGTTAACT	1.024 ± 0.0048
ATGGATTTGC	1.02 ± 0.081
ATTATTGGCA	0.999 ± 0.0024
TAAAACGGGG	1.02 ± 0.074
TTTGGTTTCC	1.01 ± 0.053
TATATATCAA	1.003 ± 0.005
GAAGTCGTAG	0.96 ± 0.039
CTGTTGTGGG	0.989 ± 0.039
TACAGCTTCT	1.005 ± 0.0065
AAGGGGAAGG	0.996 ± 0.012
GACTTATTTT	0.9849 ± 0.0014
TAGGGTGTTG	1.01 ± 0.021
GGGCAAGGAT	1.015 ± 0.0028
CGGCCTGCG	1.02 ± 0.1
CAACTAAAAA	1.01 ± 0.032
ATGGAAATGG	0.996 ± 0.024
ACGATGATCT	1.06 ± 0.019
AAGAACTAGG	1.03 ± 0.041

Sequence	switch fluorescence ratio
GCCGGAGTTA	1.06 ± 0.017
TCATCCTAGC	1.19 ± 0.062
GGGGTAGGGC	1.04 ± 0.057
TTGGTAAATG	0.999 ± 0.012
GTTTTAATTC	0.9628 ± 0.0036
GAGGTGTTGC	0.985 ± 0.035
AGGAATTTTC	0.994 ± 0.032
AGGGGTTGAG	0.998 ± 0.036
TGACTTGGGT	0.991 ± 0.01
CGAACGGTTT	0.989 ± 0.016
TCAGGGATT	1.01 ± 0.057
TTTTGGGTAT	0.985 ± 0.032
GAGGCCGATT	1.02 ± 0.011
ACTTAAAAAC	1.08 ± 0.055
GGGCAGGCTG	1 ± 0.023
TGTAAAAAGC	1.018 ± 0.0059
CGTGTACCGG	1.01 ± 0.0092
TTTAGGCAAT	3.43 ± 2.7
TTTGTGATGG	0.954 ± 0.026
